Data set [1] is described as follows: Myc immunoblot of HEK293 whole cell lysates. As to conditions: glycan lost; control: wild type. For orientation: In western blotting, separated proteins are transferred to a membrane and probed.
Data set [2] can be described thus: Myc immunoblot of HEK293 medium, with/without Ni-NTA enrichment. The note with it: glycan lost; control: wild type.

B1: rat IGSF1-2 (IGSF1 isoform 2): N44Q (protein)
parent chain: MMLRTFTLLLLCIWLNRGMTSMAAVESQPELWIESNYPQAPWENITLWCKSPSRVSSKFLLLKDNTQMTWIHPPYKTFQVSFFIGALTESNTGLYRCCYWNEKGWSKPSKILELEAPGQLPKPIFWIQAETPPFPGCNVNILCHGWLQDLVFMLFKEGYTEPIDYQVPTGTMAIFSIDNLAPENEGIYICRTHIQMLPTLWSEPSNPLKLVVAGGCAHGCWHLTIVIPGIMAG
Consider B1, for which the expression_or_secretion entry in data set [1] and in data set [2] was “no change” throughout.

B2: murine IGSF1-2 (IGSF1 isoform 2): N43Q (protein)
parent chain: MMLRTFTLLLLCIWLNPGMTSLAVESQPELWIESNYPQAPWENITLWCKSPSRVSSKFLLLKDNSQMTWIRPPYKTFQVSFFIGALTESNTGLYRCCYWKEKGWSKPSKILELEAPGQLPKPIFWIQAETPPLPGCNVNIFCHGWLQDLVFMLFKEGYTEPVDYQVPTGTMAIFSIDNLAPENEGVYICRTHIQMLPTLWSEPSNPLKLVVAGGCGHGCWHLTIVIPGIMAG
B2: the expression_or_secretion result in data set [1] and in data set [2] was “no change” throughout.

For the origin of these results see publication PMC5501590.
